The source of these data is patent publication US20210259954A1, “CILIA-TARGETING NANOPARTICLES” (Chapman University, priority 2019, published 2021).

Test [1] addresses Dopamine-receptor type-5 (DR-5) on primary cilia of cultured cells. The experiment in a line: live single-cell fluorescence imaging of perfused fluorescent nanoparticles on the cilium.
In another test the test system is p-ERK. The experiment in a line: Immunoblotting of phosphorylated ERK. It counts as cell-based. To be noted: PKG inhibition. As for the experimental part:
Immunoblotting. […] Samples were kept on ice during sonication to prevent overheating. Samples were then centrifuged at 15,000 rpm for 20 min, and the supernatants were collected and subjected to protein quantification. The PAGE (polyacrylamide gel electrophoresis) on 6-10% SDS gels was performed followed by semi-dry transfer to PVDF membranes using a Bio-Rad Trans-Blot Turbo Transfer System and detection using antibodies against t-ERK (1:1,000), p-ERK (1:1,000), NOS (1:200), and GAPDH (1:2,000) (Cell Signaling Technology). Blots were scanned with both calorimetry to image molecular markers and chemiluminescence to capture the protein signal intensity using a Bio-Rad imager.

Test [2] concerns the target Dopamine-receptor type-5 (DR-5) on primary cilia of cultured cells. The experiment in a line: live single-cell-single-cilium fluorescence intensity per area.
Test [3] has the same target. The test is described as follows: fluorescence intensity in non-permeabilized live cells.

The molecule “CT-PLGA-NPs (cilia-targeted PLGA nanoparticles carrying DR-5-AF594 antibody and fenoldopam)” yielded a binding kinetics to cilia in test [1] of 0.26 min⁻¹. As for `Nc1nc2c(nc(Sc3ccc(Cl)cc3)n2C2OC3COP(O)(=S)OC3C2O)c(=O)[nH]1` (centres unmarked) [Rp-8pCPT-cGMP], in the test with p-ERK, the “flow-induced effect of NPs on ERK phosphorylation” value is given as “reduced the flow-induced effect of NPs on ERK phosphorylation”. Turning to “CT-DAu-NPs (cilia-targeted dopaminergized gold nanoparticles carrying DR-5-AF594 antibody and fenoldopam)”, in test [1], the binding kinetics to cilia was determined as 0.21 min⁻¹. For “CT-Fe2O3-NPs (antibody- and fenoldopam-loaded Sunbright-40-OA-Fe2O3-NPs)”, the proportion of specific binding cilium:cell:background (relative to background = 1) in test [2] was determined as 17000. Moreover, the ratio of cilia-to-cell body specificity in test [3] was 158.
